Values quoted from earlier work as cited in paper PMC9066409.
Where two headings read alike, the source gives them in different places.

Experiments:
[1] = molecular target: FGFR1 (Homo sapiens) (UniProt P11362)
[2] = molecular target: FGFR1 (Homo sapiens) (UniProt P11362); remark: listed apart in the source

Sequence of UniProt P11362 (P11362 22-822): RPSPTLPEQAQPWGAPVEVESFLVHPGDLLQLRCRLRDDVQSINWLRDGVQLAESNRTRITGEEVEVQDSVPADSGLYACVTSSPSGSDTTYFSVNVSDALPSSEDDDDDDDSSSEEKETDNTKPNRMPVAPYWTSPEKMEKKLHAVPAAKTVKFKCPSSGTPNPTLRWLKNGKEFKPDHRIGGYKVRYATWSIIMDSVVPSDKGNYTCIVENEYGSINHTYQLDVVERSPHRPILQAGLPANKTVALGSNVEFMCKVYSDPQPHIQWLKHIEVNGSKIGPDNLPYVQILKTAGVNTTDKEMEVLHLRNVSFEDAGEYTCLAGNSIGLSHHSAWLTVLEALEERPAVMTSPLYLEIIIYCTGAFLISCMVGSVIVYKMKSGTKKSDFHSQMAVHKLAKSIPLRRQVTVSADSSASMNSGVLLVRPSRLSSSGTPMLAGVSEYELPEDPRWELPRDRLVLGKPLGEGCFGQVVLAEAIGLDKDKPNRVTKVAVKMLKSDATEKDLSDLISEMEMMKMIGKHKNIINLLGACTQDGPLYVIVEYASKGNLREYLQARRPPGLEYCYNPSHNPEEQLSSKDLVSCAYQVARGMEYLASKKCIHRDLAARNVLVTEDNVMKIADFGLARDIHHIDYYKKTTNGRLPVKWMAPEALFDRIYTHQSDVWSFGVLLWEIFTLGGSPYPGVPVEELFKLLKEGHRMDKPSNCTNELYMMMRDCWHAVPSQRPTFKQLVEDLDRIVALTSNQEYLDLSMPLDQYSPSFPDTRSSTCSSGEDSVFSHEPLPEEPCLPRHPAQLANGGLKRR

| Kd [1] | Kd [2] | Substance |
| --- | --- | --- |
| 136 nM |  | FGF1 (from UniProt P05230) |
|  | 62 nM | FGF2 (from UniProt P09038) |
